The target of one experiment is Halo-TAF15(IDR)-NLS (UniProt Q92804). Description: live-cell single-particle tracking (SPT), residence time in puncta; living U2OS cells at 37°C, 5% CO2; HILO illumination; PA-JF646-labelled single molecules tracked (500 ms per frame, 2000 frames) within puncta of the same protein seen with JFX549; in-puncta trajectories; specific residence time of a two-component exponential fit, corrected for photobleaching with H2B-Halo.

The target in a further experiment is NLS-TAF15(IDR)-Halo-FTH1 (UniProt Q92804). Described as above.

The source of these data is PMC9817179.

Chain of Halo-TAF15(IDR)-NLS (Q92804 whole entry): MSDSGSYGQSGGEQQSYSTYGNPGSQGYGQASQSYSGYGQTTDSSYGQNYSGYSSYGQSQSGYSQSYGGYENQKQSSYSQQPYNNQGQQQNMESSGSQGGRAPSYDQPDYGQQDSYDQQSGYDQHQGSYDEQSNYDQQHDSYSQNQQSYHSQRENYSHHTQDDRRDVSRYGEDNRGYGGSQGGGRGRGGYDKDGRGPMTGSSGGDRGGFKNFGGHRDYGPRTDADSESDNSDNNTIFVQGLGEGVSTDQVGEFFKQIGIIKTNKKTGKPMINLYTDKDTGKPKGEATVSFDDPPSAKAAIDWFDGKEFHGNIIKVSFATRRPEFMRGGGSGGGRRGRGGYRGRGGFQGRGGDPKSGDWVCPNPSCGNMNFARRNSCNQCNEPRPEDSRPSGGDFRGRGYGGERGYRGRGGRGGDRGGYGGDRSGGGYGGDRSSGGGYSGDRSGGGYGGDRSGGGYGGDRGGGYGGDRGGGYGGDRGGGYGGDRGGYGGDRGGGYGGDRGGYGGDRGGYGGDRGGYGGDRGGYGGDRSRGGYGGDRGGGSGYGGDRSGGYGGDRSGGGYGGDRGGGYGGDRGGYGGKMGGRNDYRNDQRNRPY

As to “Halo-TAF15(IDR)-NLS (from UniProt Q92804 2-205) (domain or fragment)”, the residence time (RT) at its puncta with Halo-TAF15(IDR)-NLS worked out at 10.2 s. The substance “NLS-TAF15(IDR)-Halo-FTH1 (from UniProt Q92804 2-205)” returned a residence time (RT) at its puncta in the experiment with NLS-TAF15(IDR)-Halo-FTH1 of 64.2 s.
